Source: the RNAGym collection of RNA variant scans (doi:10.1073/pnas.2313332121)

B1: TPR t1 (parent)
chain: GACCAAUCUGCCCUCAGAGCUCGAGAACAUCUUCGGAUGCAGAGGAGGCAGGCUUCGGUGGCGCGAUAGCGCCAACGUCCUCAACCUCCAAUGCAUCCCACCACAUGAUGAUGCCUGAAGAGCCUUGGUUUUUUG

Variants of: B1
Test: polymerase ribozyme fitness, log enrichment relative to wild type (log ratio); higher = more active; in vitro selection for triplet polymerase activity
Procedure, shortened: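 Each subunit of a heterodimeric triplet polymerase ribozyme was represented by a PCR-built, transcribed mutant library that underwent triplicate single-round in vitro selection with frozen incubation at −7 °C. Extended constructs were recovered by gel excision, streptavidin-bead capture and RT-PCR, and Illumina sequencing of input and output libraries kept genotypes with ≥10 input reads and ≥1 read per output. Fitness is the logarithm of genotype enrichment relative to wild-type enrichment, from inverse-variance-weighted replicate averages, with a logarithm base of 2.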

Variant	polymerase ribozyme fitness (log ratio)
GACCAAUCUGGCCUCAGAGCUCGAGAACAUCUUCGGAUGCAGAGGAGGCAGACAUCGGUGGCGCGAUAGCGCCAACGUCCUCAACCUCCAAUGCAUCACACCACAUGAUGAUGCCUGAAGAGCCUUGGUUUUUUG	-5.44
GACCAAUCUGUCCUCAGAGCUCGAGAACAUCUUCGGAUGCAGAGGAGGCAGGCUCCGGUGGCGCGAUAGCGCCAACGUCCUCAACCUCCAAUGCAUCCCACCACAUGAUGAUGCCUGAAGGGCCUUGGUUUUUUG	1.39
GACCAAUCUGCCCUCAGAGCUCGAGAACAUCUUCGGAUGCAGAGGAGGCAGGCUUCGGUGGCGCGAUAGCACCAACGUCCUCAACCUCCAAUGCAUCCCACCACAUGAUGAUGCCUGAAGAGCCUUGGGUUUUUG	-2.44
GACCAAUCUGCCCUCAGAGCUCGAGAACAUCUUCGGAUGCAGAGGAGGCAGGCUUUGGUGGCGCGAUAGUGCCAACGUCCUCAACCUCCAAUGCAUCCCACCACAUGAUGAUGCCUGAAGAGCCUUGGUUUUUUG	-0.666
GACCAAUCUGCCCUCAGAGCUCGAGAACAUCUUCGGAUGCAGAGGAGGCAGGCUUCGGUGGCGCGAUAGCGCCAGCGUCCUCAACCUCCAAUGGAUCCCACCACAUGAUGAUGCCUGAAGAGCCUUGGUUUUUUG	-1.19
GACCAAUCUGACCUCAGAGCUCGAGAACAUCUUCGGAUGCAGAGGAGGCAGACUUCGGUGGCGCGAUGGCGCCAACGUCCUCAACCUCCAAUGCAUCCCAUCACAUGAUGAUGCCUCAAGAGCCUUGGUUUUUUG	-7.38
GACCAAUCUGCCCUCAGAGCUCGAGAACAUCUUCGGAUGCAGAGGAGGCAGGCUUAGGUAGCGCGAUAGCGCCAACGUCCUCAACCUCCAAUGCAUCCCAACACAUGAUGAUGCCUGAAGAGCCUUGGUUUUUUG	-1.49
GACCAAUCUGCCCUCAGAGCUCGAGAACAUCUUCGGAUGCAGAGGAGGCAGACUUCGGUGGCGCGAUAGCACCAACGUCCUCAACCUCCAAUGCAGCCCACCACAUGAUGAUGCCUGAAGAGCCUUGGUUUUUUG	-1.57
GACCAAUCUGCCCUCAGAGCUCGAGACCAUCUUCGGAUGCAGAGGAGGCAGGCUUCUGUGGCGCGAUAUCGCCAACGUCCUCAACCUCCAAUGCAUCCCACCACAUGAUGAUGCCUGAAGAGCGUUGGUUUUUUG	0.217
GACCAAUCUGACCUCAGAGCUCGAGAACAUCUUCGGAUGCAGAGGAGGCAGCCCUCGGUGGCGCGAUAGCGCCAACGUCCUCAACCUCCAAUGUAUCCCACCACAUGAUGAUGCCUGAACAGCCUUGGUUUUUUG	0.0193
GACCAAUCUGCCCUCAGAGUUCGAGAACAUCGUCGGAUGCAGAGGAGGCAGGCUUCGGUGGCGCGAUAGCGCCAACGUCCUCAACCUCCAAUGCAUCCCACCACAUGAUGAUGCCUGAAGAGCCUUGGUUUUUUG	-6.33
GACCAAUCUGCCCUCAGAGCUCGAGAACAUCUUCGGAUGCAGAGGAGGCAGGCUUCGGUGGUGCGAUAGCGCCAACGUCCUCAACUUCCAAUGCAUCCCACCACAUGAUGAUGCCUGAAGAGCCUUGGUUUUUUG	-0.567
GGCCAAACUGCACUCAGAGCUCGAGAACAUCUUCGGAUACAGAGGAGGCAGGCUUCGGUGGCGCGAUAGCGCCAACGUCCUAAACCUCCAAUGCAUCCCACCACAUGAUGAUGCCUGAAGAACCUUGGUUUUUUG	-0.0716
GACCAAUCUGCCCUCAGCGCUCGAGAACAUCUUCGGAUGCAGAGGAGGCAGGCUUCGGUGGCGCGAUAGCGCCAACGUCCUCAACCUCCAAUGCAUCCCACCACAUGAUGAUGUCUGAAGAGCCUUGGUUUUUUG	-3.82
GACCAAUCUGCCCUCAGAGCUCGAGAACAUCUUCGGAUGCAGAGGAGGCAGGCUUCGGUGGAGCGAUAGCGCCAACGUCCUCAACCUCCAAUGCAUCCCACCACAUGAUGAUGCCUCAAGAGCCUUGGUUUUUUG	-4.72
GACCAAUCUGCCCUCAGAGCUCGAGAACAUCUUCGGAUGCAGAGGAGGCAGGCUUCGGUGGCGCGAUAGCGCCAACGUCCUCAACCUCCACUGCAUCCCACCACAUGAUGAUGCCUGAAGAGCCUUGGUUUUAUG	-0.906
GACCAAUCUGCCCUCAGAUCUCGAGAACAUCUUCGGAUGCAGAGGAGGCAGGCUUCGGUGGCGCGAUAGCGCCAACGUCCUCAACCUCCAAUGCAUCCCACCACAUGAUCAUGCCUGAAGAGCCUUGGUUUUUUG	-5.06
GACCAAUCUGCCCUCAGAGCUCGAAAACAUCUUCGGAUGCAGAGGAGGCAGGCUUCGGUGUCGCGAUAGCGCCAACGUCCUCAACCUCCAAUGCAUCCCACCACAUGAUGAUGCCUGAAGAGCCUUGGUUUUUUG	-3.17
GACCAAUCUGCCCUCAGAGCUCAAGAACAUCUUCGGAUGCAGAGGAGGCAGGCUUCGGUGGCGCGAUAGCGUCAACGUCCUCAACCUCCAAUGCAUCCCACCACAUGAUGAUGCCUGAAGAGCCUUGGUUUUUUG	-5.21
GACCAAUCUGCCGUCAGAGCUCGAGAACAUCUUCUGAUGCAGAGGAGGCAGGCUUCGGUGUCGCGAUAGCGCCAACGUCCUCAACCUCCAAUGCAUCCCACUACAUGAUGAUGCCUGAAGAGCCUUGGUUUUUUG	-6.42
GACCAAUCUGGCCUCAGAGCUCGAGAACAUCUUCGGAUGUAGAGGAGGCAGGCUUCGGUGGCGCGAUAGCGCCAACGUCCUCAACCGCCAAUGCAUCCCACCACAUGAUGAUGCUUGAAGAGCCUUGGUUUUUUG	-0.239

Variant	polymerase ribozyme fitness (log ratio)
GACCAAUCUGCCCUCAGAGCUCGAGAACAUCUUCGGAUGCAGAGGAGGCAGGCUUCGGUGGGGCGAUAGCGCCAACGUCCUCUUCCUCCAAUGCAUCCCACCACAUGAUGAUGCCUGAAGAGCCUUGGUUUUUUG	-2.65
GACCAAACUCCCCUCAGAGCUCGAGAACAUCUUCGGAUGCAGAGGAGGCAGGCUUCGGUGGCGCGAUAGCGCCAACGUCCUCAACCUCCUAUGCAUCCCAACACAUGAUGAUGCCUGAAGAGCCUUGGUUUUUUG	-4.34
GACCAAUCUGCCCUCAGAGCUCGAGAACAUCUUCGGAUGCAGAGGAGGCAGGCUUCGGUGGCUCGAUAGCGCCAACGUCCUCAACCUCCAAUGCAUCCCACCACAUGAUUAUGCCUGAAGAGCCUUGGUUUUUUG	-3.12
GACCAAUCUGCCCUCAGAGCUCGAGAACAUCUUCGGAUGCAGAGGAGGCAGGCUUCGGUGGCGCGUUAGCGCCAACGUCCUCAUCCUCCAAUGCAUCCCACCACAUGAUCAUGCCUGAAGAGCCUUGGUCUUUUG	-5.62
GACCAAUCUGCCCUCAGAGCUCGAGAACAUCUUCGGAUGCAGAGGUGGCAGGCUUCGGUGGCGCGAUAGCGCCAACGUCCUCAACCUCCAAUGCAUCCCAGCACAUGAUGAUGCCUGAAGAGCCUUGGUUUUUUG	-3.57
GACCAAUAUGCCCUCAGAGCACGAGAACAUCUUCGGAUGCAGAGGAGGCAGGCUUCGGUGGCGCGAUAGCGCCAACGUCCUCAUCCUCCAAUGCAUCCCACCACAUGAUGAUGCCUGAAGAGCCUUGGUUUUUUG	-0.224
GACCAAUCUGCCCUCAAAGCUCGAGAACAUCUUCGGAUGCAGAGGAGGCAGGCUUCGGUGGCGCGAUAGCGCCAACGUCCUCAACCUCCAAUGCAUCCCACCACAUGAUGAUGCCCGAAGAGCCUUGGUUUUUUG	-3.7
GACCAAUCUGCCCUCCGAGCUCGAGAACAUCUUCGGAUGCAAAGGAGGCAGGCUUCGGUGGCGCGAUAGCGCCAACGUCCUCAACCUCCAAUGCAUCCCACCACAUGAUGAUGCCUGAAGAGCCUUGGUUUUUUG	-3.47
GACCAAGCAGCCCUCAGAGCUCGAGAUCAUCUUCGGAUGCAGAGGAGGCAGGCUUCGGUGGCGCGAUAGCGUCAACGUCCUCAACCACCAAUGCAUCCCACCACAUGAUGAUGCCUGAAGAGCCUAGGUUUUUUG	-3.36
GGCCAAUCUGCCCUCAGAGUUCGAGAACAUCUUCGGAUGCAGAGGAGGCAGGCUUCGGUGGCGCGAUAGCGCCAACGUCCUCAACCUCCAAUGCAUCCCACCACAUGAUGAUGCCUGAAGAGCCUUGGUUUUUUG	-1.26
GACCAAUCUGCCCUCAGAGCUCGAGAACAUCUUCGGAUGCAGAGGAGGAAGGCUUCGGUGGCUCGAUAGCGCCAACGUCCUCAACCUCCAAUGUAUCCCACCACAUGAUGAUGCCUGGAGAGCCUUGGUUUUUUG	-1.43
GACCAAUCUGCCCUCAGAGCUCGAGAACAUCUUCGGAUGCAGAGGAGGCAGGCUUCGGUGAUGCGAUAGCGCAAACGUCCUCAACCUCCAAUGCAUCCCACCACAUGAUGAUGCCUGAAGAGCCUUGGUUUUUUG	-2.37
GACCAAUCUGCCCUCAGAGCUCGAGAACAUCUUCGGAUGCAGAGAAGGCAGGCUUCGGUGGCACGACAGCGCCAACGUCCUUAGCCUCCAAUGCAACGCACCACAUGAUGAUGCCUGAAGAGCUUUGGUUUUUUG	-8.07
GACCAAUCUGCGCUCUGAGCUCGAGAACAUCUUCGGAUGCAGAGUAGGCAGGCUUCGGUGGCGCGAUAGCGCCAACGUCCUCAACCUCGAAUGCAUCCCACCACAUGAUGAUGCCUGAAGAGCCUUGGCUUUUUG	-4.69
GACCAAUCUGCCCUCAGAGCUCAAGGACAUCUUCGGAUGCAGAGGAGGCAGGCUUCGGUGGCGCGAUAGCGCCAACGUCCUCAACCUCCAAUGCAUCCCACCACAUGAUGAUGCCUGAAGAGCCUUGGUUUUUUG	-4.52
GACCAAUCUGCCCUCAGAGCUCGAGAACAUCUUCGGAUGCAGUGGAGGCAGGCUUCGGUGGCGCGAUAGCGCUAACGUCCUCAACCUCCAAUGCAUCCCACCACAUGAUGAUGCCUGAAGAGCCUUGGUUUUUUG	-0.963
GACCAAUCUGCCCUCAGAGCUCGAGAACAUCUUCGGAUGCAGAGGAGGCAGGCUUCGGUGGCGCGAUAGCGCCAACGUCCUCAACCUCCAAUCCAUCCCACCACAUGAUGAUGCCUGAAGUGCCUUGGUUUUUUG	1.21
GACCAAUCUGGCCUCAGAGCUCGAGAACAUCUUCGGAAGCAGAGUAGGCCGGCUUCGGUGGCGCGAUAGCGCCAACGUCCUCAACCUCCAAUGCAUCCCACCACAUGAUGAUGCCUGAAGAGCCUUGGUUUUUUG	-2.51
GACCAAUCUGCCCUUAGAGCUCGAGAACAUCUUAGGAUGCAGAGCAGGCAGGCUUCGGUGGCGCGAUAGCGCCAACGUCCUCAACCUCCAAUGCAUCCCACCACAUGAUGAUGCCUGAAGAGCCUUGGUUUUUUG	-6.34
GACCAAUCUGCCCUCAGAGCUCGAGAAUAUCUUCGGAUGCAGAGGAGGCAGGCUUCGGUGGCGCGAUAGCGCCAACGUCCUCAACCUCCAAUGCAUCCCACCACAUGAUGAUGCCUGAAGAGCCUUGGUUUUUUU	-2.44
GACGAAUCUGCCCUCAGAGCUCGAGAACAUCUUCGGAUGCAGAGGAGGAAGGCUUCGGUGGCGCGAUAGCGCCAACGUCCUCAACCUCCAAUGCAUCCCACCACAUGAUGAUGCCUGAAGAGCCUUGGUUUUUUG	-2.14
